Key:
[1] = target: T1, Cynomolgus macaque Fas on the cell surface (cynomolgus macaque, UniProt Q9TSN4 26-331); experiment: flow cytometry histograms (FL1-H) on cynomolgus macaque cells (cell type not printed on the sheet), FITC anti-human kappa or FITC anti-human IgG secondary
T1 construct: whole, on cells; also called Fas on cynomolgus macaque B cell line and PBL
T1 sequence (looked up): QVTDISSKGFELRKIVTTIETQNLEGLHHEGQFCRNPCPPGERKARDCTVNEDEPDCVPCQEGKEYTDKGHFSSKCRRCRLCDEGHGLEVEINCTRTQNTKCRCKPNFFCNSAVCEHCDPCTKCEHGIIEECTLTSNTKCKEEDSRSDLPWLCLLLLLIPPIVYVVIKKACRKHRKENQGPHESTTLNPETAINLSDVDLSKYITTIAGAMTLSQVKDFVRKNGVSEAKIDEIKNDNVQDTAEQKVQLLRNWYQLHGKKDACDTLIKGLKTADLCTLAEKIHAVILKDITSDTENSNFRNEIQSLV
Excerpt: (§1) Reactivity of F45D9-γ1 or F45D9-γ4 mAb with Fas molecules of various species was initially screened using primary blood cells or lymphocytes cell lines. The binding of F45D9-γ1 or F45D9-γ4 mAb was explored by immunofluoresce staining and flow cytometry analysis, in human PBMC, purified human resting T cells, activated human T cells, peripheral blood lymphocytes (PBL) derived from BALE/c mice, rat, dog and pig, and in B cell lines or PBL derived from common marmoset, cynomolgus macaque, olive baboon, rhesus macaque and chimpanzee. Resting and activated human T cells were prepared as described in Example 7. B cells lines from monkeys were obtained from Biomedical Primate Research Center (Rijswijk, The Netherlands), and were cultured in RPMI 1640 medium supplemented with 2 mM glutamax, 100 UI/mL penicillin, 100 μg/mL streptomycin and 10% fetal bovine serum, at 37° C. and 5% CO₂. After washing in PBS cells (0.2−0.4×10⁶ cells/well) were incubated in staining buffer (PBS/1% FBS) containing F45D9-γ1 or human IgG control antibodies (10-20 ug/ml) in a 96-well U-bottom plate for 30 min on ice, in a 100 ul/well volume. Cells were then washed once with staining buffer, and further incubated for 30 min on ice with 1:30 dilution of FITC-conjugated rabbit F(ab′)₂ anti-human kappa (DakoCytomation Cat. F0434) or FITC-conjugated rabbit F(ab′)₂ anti-human IgG (DakoCytomation Cat. F0056). […]

[2] = target: T2, Chimpanzee Fas on the cell surface (chimpanzee, UniProt K6ZIR5 26-335); experiment: flow cytometry histograms (FL1-H) on chimpanzee cells (cell type not printed on the sheet), FITC anti-human IgG secondary
T2 construct: also called Fas on chimpanzee B cell line
T2 sequence: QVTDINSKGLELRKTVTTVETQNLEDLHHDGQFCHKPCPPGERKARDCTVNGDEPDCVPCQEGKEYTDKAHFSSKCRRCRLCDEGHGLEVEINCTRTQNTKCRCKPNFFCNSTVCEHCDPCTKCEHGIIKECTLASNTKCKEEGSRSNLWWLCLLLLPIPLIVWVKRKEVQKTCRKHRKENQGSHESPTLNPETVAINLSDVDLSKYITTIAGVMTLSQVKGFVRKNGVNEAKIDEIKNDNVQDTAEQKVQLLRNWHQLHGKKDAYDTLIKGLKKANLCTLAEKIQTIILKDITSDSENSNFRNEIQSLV
Excerpt: as §1

[3] = target: T3, Common marmoset Fas on the cell surface (common marmoset (Callithrix jacchus)); experiment: flow cytometry on the marmoset B cell line 9505, FITC anti-human IgG secondary, MFI after subtraction of the control human γ1 staining
T3 construct: whole, on cells
Excerpt: as §1

[4] = target: T4, Human Fas (CD95) on the cell surface (human, UniProt P25445 26-335); experiment: flow cytometry on SKW6.4 cells, FITC anti-human IgG secondary, geometric MFI after background subtraction
T4 construct: also called APO-1; TNR6_Human
T4 sequence: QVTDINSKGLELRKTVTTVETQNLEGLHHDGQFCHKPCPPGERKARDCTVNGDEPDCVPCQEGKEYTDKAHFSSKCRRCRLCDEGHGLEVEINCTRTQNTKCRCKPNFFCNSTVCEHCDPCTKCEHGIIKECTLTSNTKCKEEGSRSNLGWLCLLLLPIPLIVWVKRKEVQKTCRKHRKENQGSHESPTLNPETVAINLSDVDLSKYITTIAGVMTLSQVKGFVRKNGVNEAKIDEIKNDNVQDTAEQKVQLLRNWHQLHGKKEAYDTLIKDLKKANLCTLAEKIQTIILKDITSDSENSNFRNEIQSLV
Method: Binding of F45D9-γ1 and F45D9-γ4 to the surface of Fas expressing Jurkat and SKW6.4 cells (from ATCC, Jurkat, clone E6-1, ATCC-TIB-152, Human T Leukemia cell line); SKW6.4 cells, ATCC-TIB-215, Human B lymphoblastoid cell line) was explored by immunofluorescence staining and flow cytometry analysis. Cells were cultured in RPMI 1640 medium (GIBCO, Cat. 3105205) supplemented with 2 mM glutamax (GIBCO), 100 UI/mL penicillin, 100 μg/mL streptomycin (Sigma) and 5-10% fetal bovine serum (GIBCO), at 37° C. and 5% CO₂. After washing in PBS Jurkat or SKW6.4 cells (0.2×10⁶ cells/well) were incubated in staining buffer (PBS/1% FBS) containing F45D9-γ1, F45D9-γ4 or human IgG control antibodies (Human IgG1, kappa, Sigma, Cat. I5154 or Human IgG4, kappa, Sigma, Cat. I4639) in a 96-well U-bottom plate for 30 min on ice, in a 100 ul/well volume. Cells were then washed once with staining buffer, and further incubated for 30 min on ice with 1:30 dilution of FITC-conjugated rabbit F(ab′)₂ anti-human IgG (DakoCytomation Cat. F0056). After washing and fixing with 1% formaldehyde in PBS cells were analyzed in a FACScan (Becton Dickinson, Mountain View, Calif.). The reactivity of F45D9-γ1 and F45D9-γ4 to the surface of Jurkat cells was quantified and Geometric Mean Fluorescence Intensity (MFI) after background subtraction (FIG. 1A) and histograms (FIG. 1B) are shown. […]

B1: F45D9-γ1 mAb (recombinant human mAb T17/B2-1G4, gamma-1 isotype) (antibody, V domains shown)
VH: QVQLQQWGAGLLKPSETLSLICAVYGGSFSTYYWTWIRQPPGKGLEWIGEINHRGTTNYSPSLKSRVTISVDTSKNHISLNLTSVTAADTALYYCARGLLWIGEGDYGLDVWGQGTTVTVSS
VL: DIQMTQSPSSLSASVGDRVTITCRASQGIRRWLAWYQQKPEKAPKSLIYAASSLQSGVPSRFSGSGSGTDFTLTISSLQPEDFATYYCQQYNSYPYTFGQGTKLEIKR
notes: Whole human IgG1 (γ1fa allotype) with human kappa light chain, made in CHO DG44 cells; also called IgG1; T17/L18/B2-1G4
binding result [1]: no binding
binding result [2]: binds
EC50 (read off the curve) [3]: ~2 µg/mL
EC50 (read off the curve) [4]: ~0.4 µg/mL
